How the values were obtained:
Test in all cases: pull-down
[1] = target: T1, His6-GIGYF1 GYF domain F533E (human, UniProt O75420 470-538, F533E)
T1 sequence (looked up): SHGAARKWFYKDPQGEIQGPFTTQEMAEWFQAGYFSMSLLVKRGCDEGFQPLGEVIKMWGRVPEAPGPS

[2] = target: T2, His6-GIGYF2 GYF domain F592E (human, UniProt Q6Y7W6 529-597, F592E)
T2 sequence (looked up): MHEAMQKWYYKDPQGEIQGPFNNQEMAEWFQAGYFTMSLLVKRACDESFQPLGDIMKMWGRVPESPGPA

[3] = target: T3, His6-GIGYF2 GYF domain (residues 529-597) (human, UniProt Q6Y7W6 529-597)
T3 sequence (looked up): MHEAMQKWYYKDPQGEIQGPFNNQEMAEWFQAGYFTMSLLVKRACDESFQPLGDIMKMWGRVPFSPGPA

[4] = target: T4, His6-GIGYF1 GYF domain (residues 470-538) (human, UniProt O75420 470-538)
T4 sequence (looked up): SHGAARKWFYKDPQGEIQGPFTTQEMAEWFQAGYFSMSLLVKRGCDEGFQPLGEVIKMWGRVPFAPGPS

binding result [1]: binds
binding result [2]: binds
binding result [3]: binds
binding result [4]: binds
Binder: GWVPPPPGFAP (peptide, UniProt P26651 68-78, looked up) [GST-tagged fragment of the first tetra-proline region of TTP (residues 68-78)]
